# Results: patent US20140186363A1 (UNIVERSITY OF ZURICH, published 2014)
# T1: MAGEA3 peptide no 17
# T1 construct: also called MAGEA3 aa 161-180
# T1 peptide: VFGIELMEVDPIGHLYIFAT
# T2: MAGEA3 peptide no 4
# T2 construct: also called MAGEA3 aa 31-50
# T2 peptide: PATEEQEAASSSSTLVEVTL
# T3: MAGEA3 peptide no 24
# T3 construct: also called MAGEA3 aa 231-250
# T3 peptide: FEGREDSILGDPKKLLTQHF
# T4: MAGEA3 peptide no 28
# T4 construct: also called MAGEA3 aa 271-290
# T4 peptide: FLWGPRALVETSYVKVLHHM
# T5: MAGEA3 peptide no 18
# T5 construct: also called MAGEA3 aa 171-190
# T5 peptide: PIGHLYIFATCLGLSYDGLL
# T6: MAGEA3 peptide no 5
# T6 construct: also called MAGEA3 aa 41-60
# T6 peptide: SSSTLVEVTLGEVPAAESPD
# T7: MAGEA3 peptide no 9
# T7 construct: also called MAGEA3 aa 81-100
# T7 peptide: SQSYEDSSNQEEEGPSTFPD
# T8: MAGEA3 peptide no 27
# T8 construct: also called MAGEA3 aa 261-280
# T8 peptide: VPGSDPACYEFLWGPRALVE
# T9: MAGEA3 peptide no 1
# T9 construct: also called MAGEA3 aa 1-20
# T9 peptide: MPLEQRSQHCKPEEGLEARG
# T10: MAGEA3 peptide no 6
# T10 construct: also called MAGEA3 aa 51-70
# T10 peptide: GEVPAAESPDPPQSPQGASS
# T11: MAGEA3 peptide no 11
# T11 construct: also called MAGEA3 aa 101-120
# T11 peptide: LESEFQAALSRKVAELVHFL
# T12: MAGEA3 peptide no 10
# T12 construct: also called MAGEA3 aa 91-110
# T12 peptide: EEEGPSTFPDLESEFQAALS
# T13: MAGEA3 peptide no 14
# T13 construct: also called MAGEA3 aa 131-150
# T13 peptide: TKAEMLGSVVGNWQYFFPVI
# T14: MAGEA3 peptide no 16
# T14 construct: also called MAGEA3 aa 151-170
# T14 peptide: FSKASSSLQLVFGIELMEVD
# T15: MAGEA3 peptide no 25
# T15 construct: also called MAGEA3 aa 241-260
# T15 peptide: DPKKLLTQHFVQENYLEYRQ
# T16: MAGEA3 peptide no 30
# T16 construct: also called MAGEA3 aa 291-310
# T16 peptide: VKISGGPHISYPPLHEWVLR
# T17: MAGEA3 peptide no 23
# T17 construct: also called MAGEA3 aa 221-240
# T17 peptide: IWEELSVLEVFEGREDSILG
# T18: MAGEA3 peptide no 3
# T18 construct: also called MAGEA3 aa 21-40
# T18 peptide: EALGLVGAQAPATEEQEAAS
# T19: MAGEA3 peptide no 12
# T19 construct: also called MAGEA3 aa 111-130
# T19 peptide: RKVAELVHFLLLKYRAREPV
# B1: 34G9 (antibody, V domains shown)
# VH: EVQLEESGGDLVQPGGSLRLSCAASGFTFSHYWMHWVRQAPGKGLVWVSRINSDGSSTSYADSVKGRFTISRDNAKNTLYLQMNSLRAEDTAVYYCARIGSDGYNYDFWGQGTLVTVSS
# VL: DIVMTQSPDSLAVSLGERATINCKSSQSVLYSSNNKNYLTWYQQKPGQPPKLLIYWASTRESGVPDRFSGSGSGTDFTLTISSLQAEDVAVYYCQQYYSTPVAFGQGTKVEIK
# notes: Patient-derived human antibody made recombinantly; also called human monoclonal antibody 34G9
# B2: 32H2 (antibody, V domains shown)
# VH: QVQLVESGGGVVQPGRSLRLSCAASGFTFSSNAMHWVRQAPGKGLEWVAVISHDGSNKYYADSVKGRFTISRDNSKNTLYLQMNSLRAEDTAVYYCARDGSGSYFNLDYWGQGTLVTVSS
# VL: QSALTQPASVSGSPGQSITISCTGTSSDVGGYNYVSWYQQHPGKAPKLMIYEVSNRPSGVSNRFSGSKSGNTASLTISGLQAEDEADYYCSSYTSSSTLVFGTGTKVTVL
# notes: Patient-derived human antibody made recombinantly; also called human monoclonal antibody 32H2
# B3: 102G10 (antibody, V domains shown)
# VH: EVQLVESGGGLVKPGGSLRLSCAASGFTFSGNSMNWVRQAPGKGLEWVSSISSSSGYIYYADSVKGRFTVSRDNAKNSLYLQMNSLRAEDTAVYYCATWPVTTARVGYWGQGTLVTVSS
# VL: QSVLTQPPSASGTPGQRVTISCSGSSSNIGSNYVYWHQQLPGTAPKLLIYRHDQRPSGVPDRFSGSKSGTSASLAISGLRSEDEADYYCAAWDDSLSAWVFGGGTKLTVL
# notes: Patient-derived human antibody made recombinantly; also called human monoclonal antibody 102G10
# Assays:
# MAGEA3 peptide no 17 = target: T1, MAGEA3 peptide no 17; experiment: peptide ELISA (coated 20mer) [Figure 1]
# Experimental: (§1) 20mer peptides spanning the entire MAGEA3 protein with 10 aa overlaps shared by each adjacent peptide (Peptides&Elephants, Nuthetal, Germany) were used to coat Maxisorp ELISA plates (Nunc, Rochester, N.Y.). As control a 20mer peptide representing amino acids 40-21 from the NY-ESO-1 protein was used (rev). The numbering of amino acids of MAGEA3 is based on SEQ ID No:41.
# (§2) Human recombinant antibody was used at a concentration of 1 μg/ml. Bound human antibody was detected using horseradish peroxidase-conjugated goat anti-human IgG Fc-gamma specific antibodies (Jackson ImmunoResearch, Europe Ltd., Cambridgeshire, UK).
# MAGEA3 peptide no 4 = target: T2, MAGEA3 peptide no 4; experiment: peptide ELISA (coated 20mer) [Figure 1]
# Experimental: as §1, §2
# MAGEA3 peptide no 24 [1] = target: T3, MAGEA3 peptide no 24; experiment: peptide ELISA (coated 20mer) [Figure 1]
# Experimental: as §1, §2
# MAGEA3 peptide no 28 = target: T4, MAGEA3 peptide no 28; experiment: peptide ELISA (coated 20mer) [Figure 1]
# Experimental: as §1, §2
# MAGEA3 peptide no 18 = target: T5, MAGEA3 peptide no 18; experiment: peptide ELISA (coated 20mer) [Figure 1]
# Experimental: as §1, §2
# MAGEA3 peptide no 5 [2] = target: T6, MAGEA3 peptide no 5; experiment: peptide ELISA (coated 20mer) [Figure 1]
# Experimental: as §1, §2
# MAGEA3 peptide no 9 [3] = target: T7, MAGEA3 peptide no 9; experiment: peptide ELISA (coated 20mer) [Figure 1]
# Experimental: as §1, §2
# MAGEA3 peptide no 27 = target: T8, MAGEA3 peptide no 27; experiment: peptide ELISA (coated 20mer) [Figure 1]
# Experimental: as §1, §2
# MAGEA3 peptide no 1 [4] = target: T9, MAGEA3 peptide no 1; experiment: peptide ELISA (coated 20mer) [Figure 1]
# Experimental: as §1, §2
# MAGEA3 peptide no 6 [5] = target: T10, MAGEA3 peptide no 6; experiment: ELISA on plate-coated 20mer peptide, antibody at 1 µg/ml, anti-human IgG Fc-HRP [Figure 1]
# Experimental: as §1, §2
# MAGEA3 [6] = target: T20, MAGEA3 (human, UniProt P43357 1-314); experiment: ELISA, plate coated with recombinant MAGEA3, serial dilution of antibody [Figure 4]
# T20 construct: also called recombinant MAGEA3; MAGEA3-protein
# MAGEA3 [7] = target: T20, MAGEA3; experiment: ELISA, plate coated with recombinant MAGEA3, serial dilution of antibody
# MAGEA3 peptide no 24 [8] = target: T3, MAGEA3 peptide no 24; experiment: peptide ELISA (coated 20mer)
# Experimental: as §1, §2
# MAGEA3 peptide no 11 = target: T11, MAGEA3 peptide no 11; experiment: peptide ELISA (coated 20mer)
# Experimental: as §1, §2
# MAGEA3 peptide no 10 = target: T12, MAGEA3 peptide no 10; experiment: peptide ELISA (coated 20mer)
# Experimental: as §1, §2
# MAGEA3 peptide no 6 [9] = target: T10, MAGEA3 peptide no 6; experiment: peptide ELISA (coated 20mer)
# Experimental: as §1, §2
# MAGEA3 peptide no 14 = target: T13, MAGEA3 peptide no 14; experiment: peptide ELISA (coated 20mer)
# Experimental: as §1, §2
# MAGEA3 peptide no 16 = target: T14, MAGEA3 peptide no 16; experiment: peptide ELISA (coated 20mer)
# Experimental: as §1, §2
# MAGEA3 peptide no 25 = target: T15, MAGEA3 peptide no 25; experiment: peptide ELISA (coated 20mer)
# Experimental: as §1, §2
# MAGEA3 peptide no 30 = target: T16, MAGEA3 peptide no 30; experiment: peptide ELISA (coated 20mer)
# Experimental: as §1, §2
# MAGEA3 peptide no 23 = target: T17, MAGEA3 peptide no 23; experiment: peptide ELISA (coated 20mer)
# Experimental: as §1, §2
# MAGEA3 peptide no 9 [10] = target: T7, MAGEA3 peptide no 9; experiment: peptide ELISA (coated 20mer)
# Experimental: as §1, §2
# MAGEA3 peptide no 3 = target: T18, MAGEA3 peptide no 3; experiment: peptide ELISA (coated 20mer)
# Experimental: as §1, §2
# MAGEA3 peptide no 1 [11] = target: T9, MAGEA3 peptide no 1; experiment: peptide ELISA (coated 20mer)
# Experimental: as §1, §2
# MAGEA3 peptide no 12 = target: T19, MAGEA3 peptide no 12; experiment: peptide ELISA (coated 20mer)
# Experimental: as §1, §2
# MAGEA3 [12] = target: T20, MAGEA3; experiment: ELISA, plate coated with recombinant MAGEA3, serial dilution of antibody [Figure 4]; remark: listed apart in the source
# MAGEA3 peptide no 6 [13] = target: T10, MAGEA3 peptide no 6; experiment: peptide ELISA (coated 20mer) [Figure 1]
# Experimental: as §1, §2
# MAGEA3 peptide no 5 [14] = target: T6, MAGEA3 peptide no 5; experiment: ELISA on plate-coated 20mer peptide, antibody at 1 µg/ml, anti-human IgG Fc-HRP [Figure 1]
# Experimental: as §1, §2
binder,measurement,setting,value
B1,binding result,MAGEA3 peptide no 17,no binding (tested: 1 µg/ml)
same,binding result,MAGEA3 peptide no 4,no binding (tested: 1 µg/ml)
same,binding result,MAGEA3 peptide no 24 [1],no binding (tested: 1 µg/ml)
same,binding result,MAGEA3 peptide no 28,no binding (tested: 1 µg/ml)
same,binding result,MAGEA3 peptide no 18,no binding (tested: 1 µg/ml)
same,binding result,MAGEA3 peptide no 5 [2],no binding (tested: 1 µg/ml)
same,binding result,MAGEA3 peptide no 9 [3],no binding (tested: 1 µg/ml)
same,binding result,MAGEA3 peptide no 27,no binding (tested: 1 µg/ml)
same,binding result,MAGEA3 peptide no 1 [4],no binding (tested: 1 µg/ml)
same,binding result,MAGEA3 peptide no 6 [5],binds
same,EC50,MAGEA3 [6],0.045 nM
same,EC50 (read off the curve),MAGEA3 [6],~0.04 nM
B2,EC50,MAGEA3 [7],0.033 nM
same,EC50 (read off the curve),MAGEA3 [7],~0.03 nM
same,binding result,MAGEA3 peptide no 24 [8],no binding (tested: 1 µg/ml)
same,binding result,MAGEA3 peptide no 11,no binding (tested: 1 µg/ml)
same,binding result,MAGEA3 peptide no 10,no binding (tested: 1 µg/ml)
same,binding result,MAGEA3 peptide no 6 [9],no binding (tested: 1 µg/ml)
same,binding result,MAGEA3 peptide no 14,no binding (tested: 1 µg/ml)
same,binding result,MAGEA3 peptide no 16,no binding (tested: 1 µg/ml)
same,binding result,MAGEA3 peptide no 25,no binding (tested: 1 µg/ml)
same,binding result,MAGEA3 peptide no 30,no binding (tested: 1 µg/ml)
same,binding result,MAGEA3 peptide no 23,no binding (tested: 1 µg/ml)
same,binding result,MAGEA3 peptide no 9 [10],no binding (tested: 1 µg/ml)
same,binding result,MAGEA3 peptide no 3,no binding (tested: 1 µg/ml)
same,binding result,MAGEA3 peptide no 1 [11],no binding (tested: 1 µg/ml)
same,binding result,MAGEA3 peptide no 12,no binding (tested: 1 µg/ml)
B3,EC50,MAGEA3 [12],0.034 nM
same,binding result,MAGEA3 peptide no 17,no binding (tested: 1 µg/ml)
same,binding result,MAGEA3 peptide no 4,no binding (tested: 1 µg/ml)
same,binding result,MAGEA3 peptide no 24 [1],no binding (tested: 1 µg/ml)
same,binding result,MAGEA3 peptide no 6 [13],no binding (tested: 1 µg/ml)
same,binding result,MAGEA3 peptide no 28,no binding (tested: 1 µg/ml)
same,binding result,MAGEA3 peptide no 18,no binding (tested: 1 µg/ml)
same,binding result,MAGEA3 peptide no 9 [3],no binding (tested: 1 µg/ml)
same,binding result,MAGEA3 peptide no 27,no binding (tested: 1 µg/ml)
same,binding result,MAGEA3 peptide no 1 [4],no binding (tested: 1 µg/ml)
same,binding result,MAGEA3 peptide no 5 [14],binds
